Measured values taken from the NTF2 design screens of Basanta et al. (2020).

Test: protease stability score; higher = more stable; yeast display proteolysis, trypsin and chymotrypsin;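 further: relative to predicted unfolded state with 0 unfolded-like and 1 meaning tenfold more protease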

Row | Sequence | protease stability score
1 | SEEHKEAREFLEEWITFIHTGDEDMIHKMLDPDTRSNINGRDLHGRELAVKIIIEEVRRYRGVQIRMEREHVVDGRMESTIRVHQGEKEFEVIVHFVKINGRWRLKWIEIR | 1.3
2 | SEEHKELRELIRITFEDLFTGDEDAFMRLFDPHTILHIGEKRYIGREIIIHALRWLGVDHMEIKHIDIQGEKVDMHMHLKVGDKSWTMHLHIEKFNGQWHSKHIEIR | 1.95
3 | SEEHKEMKRSLDESAKALTTGDEEHVTKMVDPNVRIIIGDKTLIGMEKWHEFLKEMRVSIHHIIFRDSDIQGDKIRLDVEVDIRVHYNGREESSKIKSKIILLKFNGKWIIHAVEFD | 0.833
4 | SEEHKLLRETLEILWDTIETGDEHKLSNLLDPRARLRVGDKEYHGREEVMRIMTEIRVDRFRLHSITLVDGRAIIHTEIDVRVNGQRFRTSVTIFLIKVDGRWFVESLQID | 2.4
5 | SEEHKMVRDVTEDWLRLLLTGDEERLAELLDPNTRFLINGKEHHGREEAIEEWRHLRVDDFRIKSIDIQYQGEKAYVDIDGRQRGKVNGKKQDRDIKIHFHILKINGRWTIHEVRVEIE | 1.56
6 | SEEHKQIEEFLTRFYRFKKTGDEKMLSRMADPNYKMDIDGQDVHGREEYEEASRRFDHIHHIKLRQFERQGNKVYLDIEVDGEVNGRQTKHTSTLILLKIDGRWYIEHVHWE | 0.722
7 | SEEHKRIEKLLRRLQDALKTGDERDIMNLLDPNVRIEINGKDLIGREVWAKIMHHLRVEDSEINIHHSRSQGNFLESDIETHRHIHVDGKDIDLTWEEHVVIIKVDGKWKIERVHIR | 1.17
8 | SEEHKVAQHAIEIEEHVWHTGDERMLHELFDPDARLIINGQEFHGREELHRFREEMRITHMRTKEVRVQGDKMEIHVRVDVDINGKRTDIRVIIISRKVDGRWINTEIEFR | 0.734
9 | SEEHKWVHMAFEVLLKVLKTGDEENVNRLFDPHVRVEWDGREIHGMETFTRELSHLRFKLDDFKLHHISVAEGRAIIHGRFHGRIEYGDKEHEFDSHVILFVLKVDGRWLIKKIEFR | 1.83
10 | SEEHQTAEKMLRILLHLFLTGDEDKFEHLLDPHVRLHVGDKEIHGRELASKKLHEMVRHLRVRDVHVDTLDIQGNKMHFDTRIDVEQGDKTYILRFHWYNEKVDGRWRIHLVHYD | 1.68
11 | SEEHRDIEIARHIWVDMLRTGDERKSKELADPHVQIHFENRIYHGREEWERMIHELIHTLGADHIEIRIHSIEVQGDKILVHFHIEFQVNGKYLRYDSRSVFIKINGQWHLRSVYII | 1.25
12 | SEEHRDSKRAIDILVHSVRTGDEKSFESFLDPNVRIDVDGVELHGMEFATTIFREWRIHHVHIDRYRSQGDWIEVDTTMDVRYGDKTDTRKTELIILKVNGVWLLHSVIIR | 1.19
13 | SEEHRDVAKVIHDWFHDTITGDFKTLERLMDPNARLRINGQEFHGREEVRKFLERLLRHWREHSVEIEDINVQGDKASVHSHIDGEIDGRRIRMRSIFIILKFDGQWLMHSVIVE | 2.68
14 | SEEHRESEEASHEFRRLWETGDEKDFLKLADPHTRLEVNGKDIHGMREVTEFMKRRLHHLGFKHSDVKHEHVEVFDGKVRIEMIIEIHVNGVPLHTEVLVILTKINGKWRIHSITEEIK | 0.69
15 | SEEHRKVEEFARHWLHNFQTGDFRRFYELVDPNVRLRQGDWEFHGREIVAEWLFVHLEHARIDDYKVNHVENYNGRSIIDSEIHGEINGRRDITRVEIILIIINGRVHYVEIRIR | 2.31
16 | SEEHRLMEEIARIFIHLFLTGDEELFKHLADPNTRTHIHYGDKHIDLHGREQTTKFWKEHLDRVDHVEIRINDIRSIGDKAHIDGVLIMLVNGREHTIHIEIIVVVINGKDTEFEFRLI | 0.966
17 | SEEHRLSEEIARIEVHAWITGDEHILHELLDPNTRLEVNGREYHGREIVLKMIREFWENLGAKHREVKRVRIELIDGRVTTHIKDKVSQGDKELEIIIEIITEKVNGRWVIRNMRIELR | 2.7
18 | SEEHRQILHVMHLILELWMTGDEETLYHLADPNVRLLIDGREYHGREQIRKVWEDHHRRADHVDFRLKRFELFENHAHVHGEFIIVVNGVEFRHETELELHVVNGRVKEHNLRIK | 1.35
19 | SEEHTIAEEAIKHLIEILETGDFRTLHRMIDPHVRFEYGDKHLHGREILIKWFEEHWEKLGVDKVEVHVKDIEIQGNKAIVIGDIVINGQRKDTVWHLIVINGRIKMIRIEEH | 1.7
20 | SEEKDDANRHLEIFFHYFITGDESSMLREADPHVQVEQGDKHIHGMEEWVTEWSKREKELGAKHIKLEDKRIHLINGRVHLILDLIIEVGDKRRRMILIVTIDKINGRWVMSQMKLEVR | 1.2
21 | SEEKDQLKHVLEDLLRSIITGDEERIVELLDPEVRVDVGEKHSHGRENAAHLVQKLSEELRWRDIHVRDVRLIGDKIDIETRLEGDINGRNLIFQTHRHVIKVNGRWYFRRIIIH | 1.38
22 | SEEKEDAKIALTLLHEVIETGDERLFREMADPRVQIIVNGKELHGWKHFKEMLRILSERYDHMEIKFRDVRVVDGQVDSDVTINLHYDGREDQMEMDIIISKFDGRWFNHQVIFR | 1.34
23 | SEEKEDIDLAMEIFLHALETGDWEELLRQMDPNVRIVIGDKETHGREEFELTLLKLGIDHFHIKDMKLINGRLHLDTRVHFNGVTVQTEIIIVKFNGRWVIEEMDFQ | 2.4
24 | SEEKEEVKEVVEHVLEVMLTGDEEHSRELVDPHVRIEVGDKSRHGRDDMAHWLSHARIHRLHIKRSEVIGDYLHIDVHIDVEYNGKRMTTDVRRHELKVDGRWFIREERIE | 1.42
25 | SEEKEHHHQLARDILEMLRTGNEEIWHRLLDPHVKLNIDGKEYHGREDVRQMLRDHLEKIKGIKLHVTDVKDFDGKVYVHGRWHVGNFTVDILTIYTFIDGRVHTMSEETR | 1.41

Row | Sequence | protease stability score
26 | SEEKEHSDRLAEHLIHWFYTGDEDKLNELFDPNTKYVINGKELHGMESEHRERREEWRRVKNITFSIKHWDIQGNKVILHMTIHVGEKDIFVTYEYRIFDGKMKEIQVHVR | 0.867
27 | SEEKEIAERFIEMALQVWLTGDERSMVDMVDPHVLNIVGDKEHHGREILLKFLHDFKERFPNVRVKHRDVHIDLQGDKMEVRIDGRIHFDGKQFRLEIIIITTKIDGRWRVTHWEVRIE | 2.19
28 | SEEKEIAERIVRELLYAYHTGDEQLFNHLADPHVRIHIGEFHKVGREHWEELHRWLDNHLRIHRFFFRDVEVQGEKVHIHVRTNTIIGDKRIDTNLLFFILVVNGKIKHMEVREI | 1.81
29 | SEEKEKAEHVVRQFLRVILTGDWERIEELMDPHVRFRVDVDGQTLHNHGRERLIDWYAKVKGLRNNLREIHIFENRAELHFESTIGDKHFKERIEIHIVDGRFKSVTFQFE | 1.42
30 | SEEKELLEKISELLLKLLKTGDEETWNKLADPNMRLNVNGKDVHGWHKMIKLRHEVWEKLGIDHLEVKTIDIINGRVRIESRLVVNGRFIHIELEFHVINGRNEEEHLFVR | 0.418
31 | SEEKEMLETWFLLLVESFETGDEELFEELADPRTRLVINGRHQHGREDINEWLHRVWHKLGAKHVSLDLHDMRVINGRIHSHFTLLIRIGDYTERRQVDLHMIIINGKVKHVEIRFR | 1.06
32 | SEEKEMVLHLAELLIELEFTGNWEKLFELADPNVLSRINGRELHGMEKHRKHWEEIRIHRVHIEKVHIETIGDKAKLDIHGRLDGEVNGVRDISESVIHIVSRKYDGRWIVKSIEIRVH | 1.22
33 | SEEKERNHEIAEILIKLWLTGDEDHFWQLADPNPRVDFDGQEIIGRESIMRLLEHLIRRLGINHKHVDHTERQGDKVHIEVRLDQGEYHRTLHLEFIYVNGRVKEVRIRSRER | 1.4
34 | SEEKHDSEKLSHLLDHEWLTGDEESFRKLADPHVKSNINGVRLHGWRELHQFLDEHFNHLGAKIEDSDTEHIHTQGDKAFIHSTFVLLVNGKRIELETFFRSRKFDGRWVLTEVHVH | 0.521
35 | SEEKHMYKKLIEEWLKSVITGDEEHIQHLVDPDVRMTIIFENHELRAVGWEEVVRVLKEIRIKHFELRRWDDVNGRVHLDGQMTIQFNGQEHQTSTHIEIMFINGRVKEIRLIIT | 0.986
36 | SEEKHYFDSMLEIWRHLMQTGDERLFSELFDPNALVLFNGRHDHGRDAFRWILLQLRIDHINVHLRDFRKQGNKIIIHSEIEVDFTVNGQRREDSHMQIIIFHKIDGRWYATSLEVQ | 1.53
37 | SEEKKAIDEVLRLIFEAELTGNEDELEHLIDPHVKFHIDGVDVHGWEYLSYWIRQIRIHNLHPRSVEIHVYNGRVEVNIRGHYEGTINGRRTTFDMRVHIRIEKIDGVWIVREMSRHNH | 1.7
38 | SEEKKALDILLKTLIHTHQTGDEHTVRELVDPHVRIDFNGQELHGWEDARRFIVEMRLKHVDLRRVHHQGEKVELDGEVDGTYNGQEFHSKLHIVMRKVNGRWVFSQIEIK | 1.17
39 | SEEKKAWKLSLELHRRYVETGNEEDLIRFLDPHVRLEFNGQQYVGWEEVIRIMEELGFDVLKEIRLHSLDFQGEYVEVDGEVNGNINGRDRDHRIKFRMLKVDGKWLNHSVHVI | 1.36
40 | SEEKKESDKFFEEWVRSAQTGDEDRVREMLDPNARVEIGDKTYVGRELFLRIMVEIRIKDIILKDIRIQGDKLRNDGELLITVDGKEIRVETHIIAEKVDGRWVLSRFVWH | 1.35
41 | SEEKKFLEKAHREILHLYKTGDEDRMSELADPDVRMRLVINGQERHHHGREEFERVFREMLDRFGVKHVEDEDSDLVNGQVHIKGTERFNGKEVRFNIIIVWVDGRVHMLSVEYR | 0.264
42 | SEEKKFSMEMLELLLHLLLTGDWDKLNKEFDPDYRLIIGDKETIGRESVRERLRLEIERIDHIHDVKIEDWKVQGDKAHIRLRVDGNIDGKRKEFESELIVIIVDGRMKSVRIIIK | 1.97
43 | SEEKKHVEEVARHILHLFLTGDEELWSNMADPNMRYLWNGREIVGRDLVREQNKELRTHSIEITHIEVFDGRARVRVNVDYQIGDKRINTHSLVIIVIINGRIESVFIKHD | 1.27
44 | SEEKKLYDLAWELLLQSEKTGNEEIFERLADPHVRSHINGVDYIGRERFSELAHEINRELRIEDIHLHDVDLQGDKVNMSGSLTGHVNGKRHEYTMKIHFEKINGRWIIRSVSWE | 1.39
45 | SEEKKQSDEAWELYIKSVETGDFRMLHELLDPNVKIHIGDKDIHGREYIMEHMLKFGVTTQSRFEVKDIKLQGDFVIIHGHIRSIFHFNGRTLRVEHDVEIFATKFDGRWWTHSVEVN | 1.18
46 | SEEKKWEDDFMEDFLRAFHTGDFHRLLELLDPHVRIEINFENRKIDLIGREEFEKWMRRVKNARFHVEHWHSINGVNFSDTVLRYGDKEQKTELIFHVYNGKVKHIDVEFH | 2.26
47 | SEEKQDVDEFIKRVIETLETGDWRNRHDLLDPNVRIDIDGVELIGRHIALELDWYFLRHARVRMYIRHVNVQGEYMDVDGRLHIHQGDKNIHIETRLIVHKINGRWLIKSIELR | 2.87
48 | SEEKRDSHQAIHLFIKNRVTGNWKDLYKNVDPHARLEIGDKHFHGRELFVRLMLELGVDHFDIESVDIQGDFIHIKGQIDVNGRTLDVELVAWKYNGRWYEHSVIIK | 1.16
49 | SEEKRIDQHFTEQLDRLIETGDEEQLNKLADPHARLIFNGRTEHGREESHKLRHELLERWGHDRVHVELKDMEVQGDKLIVHTVIQINGVKFHVEIIVRKINGRWKMTEVRII | 0.314
50 | SEELEHAERLDRMIAKAYSTGDEDVFRELLDPHVKIHDEDHHSHGMEWIRYHIERFKNVRSSVEVRRYHVQGNKIFSDGVFRLQVGDKDITRRVLFVVLKVDGRWIMESIHIE | 1.08
